Results taken from paper PMC12504095.

Experiments:
[1] = target: Streptococcus pyogenes alpha-enolase (SEn) (S. pyogenes strain AP53) (UniProt P69949); assay: cryo-EM structure; SEn reconstituted in DOPG vesicles, extruded to small unilamellar vesicles; octamer in the bilayer
[2] = target: Streptococcus pyogenes alpha-enolase (SEn) (S. pyogenes strain AP53) (UniProt P69949); assay: SPR; SEn immobilised on CM5 chip; tPA analyte 0-2000 nM in HBS-EP+ pH 7.4; 10 uL/min, 600 s association, 300 s dissociation; affinity (steady-state) fit
[3] = target: Streptococcus pyogenes alpha-enolase (SEn) (S. pyogenes strain AP53) (UniProt P69949); assay: flow cytometry on DOPG vesicles; SEn-constituted DOPG vesicles (BSA-blocked) incubated with 0.8 uM tPA in PBS for 1 h; mouse anti-tPA and Alexa Fluor 488 anti-mouse IgG

Substance | stoichiometry N [1] | Kd [2] [nM] | percent DOPG-SEn-tPA complex (FITC-positive vesicles) [3] [%]
Streptococcus pyogenes alpha-enolase (SEn) (from UniProt P69949 1-435) (enzyme) | 8 |  | 
recombinant human tissue-type plasminogen activator (tPA) (enzyme) |  | 161 | 70
